Source: the supplement of paper PMC10724198
± gives the standard deviation of the averaged measurements.

Test system: Saccharomyces cerevisiae
Experiment: protein stability index of tFT-peptide fusion (C-terminal peptide) (PSI (0-1 scale)); higher = more stable (slower turnover)
Settings: genetic background: wild type; temperature: 30 C
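Further: PSI is a weighted mean of sequencing reads over stability bins, variants kept only with over 10 reads, mCherry proximal and sfGFP distal, peptide attached via GGGS linker.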

Sequence | protein stability index
KKEKSQTKKQNI | 0.684 ± 0.12
KKEKVKKKKGNN | 0.723 ± 0.013
KKEKYIQIRTID | 0.627 ± 0.033
KKEQKFKEDSDR | 0.677 ± 0.019
KKEQKSKTEMRK | 0.7124 ± 0.0037
KKGKEKEVKKKK | 0.646 ± 0.074
KKGKKRNKTAKQ | 0.628 ± 0.062
KKGNKYNNKRKK | 0.69 ± 0.04
KKGRTVEKKKGD | 0.694 ± 0.0039
KKGSSKKKKPVE | 0.6581 ± 0.0062
KKHTLNENKMKE | 0.652 ± 0.011
KKICPDFGLLLV | 0.591 ± 0.004
KKIEHRVLNELK | 0.6288 ± 0.00069
KKIKKHEKKKNK | 0.721 ± 0.053
KKIRKKLKKMKM | 0.644 ± 0.053
KKITTDNKKNKI | 0.651 ± 0.067
KKKEKKRKEEKN | 0.824 ± 0.052
KKKIKNKTNEEK | 0.647 ± 0.038
KKKKEEKNRQES | 0.7 ± 0.077
KKKKIKKKTKKE | 0.667 ± 0.027
KKKKKEQKTNQT | 0.697 ± 0.022
KKKKKHTQYKRK | 0.6997 ± 0.0026
KKKKKKKIRKKI | 0.682 ± 0.029
KKKKKKKKDNKL | 0.781 ± 0.099
KKKKKKKKHEQK | 0.678 ± 0.09
KKKKKKKKKKRK | 0.685 ± 0.01

Sequence | protein stability index
KKKKKKKKKNKK | 0.679 ± 0.048
KKKKKKKKTKKR | 0.637 ± 0.044
KKKKKKKTQTNK | 0.692 ± 0.015
KKKKKKNKKKTQ | 0.734 ± 0.04
KKKKKKQKKKIQ | 0.741 ± 0.05
KKKKKNKKKTIK | 0.6886 ± 0.0046
KKKKKNKKNKKY | 0.709 ± 0.038
KKKKKNSRKKQQ | 0.7108 ± 0.0018
KKKKKNTKVYNE | 0.703 ± 0.13
KKKKKQIKKQKK | 0.586 ± 0.02
KKKKKQKKKKRK | 0.682 ± 0.013
KKKKKVKITGKK | 0.766 ± 0.018
KKKKNKQKQIET | 0.759 ± 0.07
KKKKQKKNKKKK | 0.6602 ± 0.0052
KKKKSKIKKKRE | 0.665 ± 0.042
KKKKTKKKEQKE | 0.693 ± 0.012
KKKPKKQRKNKR | 0.684 ± 0.013
KKKQKTIYRQKE | 0.64 ± 0.089
KKKRKRKRSRRK | 0.639 ± 0.03
KKKRTKKEREKK | 0.6612 ± 0.0032
KKNKKNKKKKKN | 0.63 ± 0.082
KKPVALVESRRV | 0.662 ± 0.055
KKQKKKTKANKT | 0.673 ± 0.041
KKREEKKEKRKR | 0.643 ± 0.054
KKRGNYKTTESN | 0.687 ± 0.0076
KKRILNRKKEER | 0.705 ± 0.052

Sequence | protein stability index
KKRMKKKTKNKN | 0.652 ± 0.019
KKRNMRINSKKQ | 0.7 ± 0.022
KKRRNRIKKSAK | 0.689 ± 0.14
KKRVSKETDKVK | 0.693 ± 0.027
KKSKDKRNPKKK | 0.692 ± 0.028
KKTKEQEGEKTE | 0.679 ± 0.026
KKTKKKQQGKIQ | 0.702 ± 0.017
KKTKNKKKQNGK | 0.6863 ± 0.0012
KKTPKKKHKKKR | 0.679 ± 0.12
KKYIEKKFNIQK | 0.664 ± 0.03
KKYKKKKKRARY | 0.698 ± 0.019
KLAHVKIKKTGK | 0.652 ± 0.018
KLKIINENKLQN | 0.618 ± 0.087
KMGGKRTKKIGQ | 0.694 ± 0.086
KNADHPRKDEQP | 0.661 ± 0.095
KNEESTKREGHF | 0.669 ± 0.063
KNIKENIGDKNK | 0.646 ± 0.06
KNKEISQIYIKN | 0.662 ± 0.027
KNKIRLLNKTSK | 0.6717 ± 0.0014
KNKKKNTIKKNK | 0.684 ± 0.018
KNKREKKKENTK | 0.682 ± 0.0078
KNKVTRNEKGIT | 0.639 ± 0.047
KNNKKQRNRTGE | 0.669 ± 0.017
KNNKSERIEKEQ | 0.701 ± 0.08
KNNNREKLRQSM | 0.623 ± 0.056
KNTKRQIKKNKK | 0.662 ± 0.17

Sequence | protein stability index
KNWRMKKDHKQA | 0.657 ± 0.024
KQERCCEEREEK | 0.729 ± 0.024
KQHTEQIDRRTG | 0.6635 ± 0.0036
KQKKAKKQKKKK | 0.69 ± 0.099
KQKKKIKIQNKT | 0.689 ± 0.12
KQKKNEENTKKT | 0.735 ± 0.064
KQKKNKKKKQNR | 0.699 ± 0.036
KQLEKYKDIRRK | 0.665 ± 0.061
KQNKIIKKRKKK | 0.659 ± 0.067
KQRGTRGNKANE | 0.6231 ± 0.0058
KQRKIKKNIINH | 0.707 ± 0.015
KQRKSESGSNTV | 0.686 ± 0.057
KREARGERGKGE | 0.644 ± 0.04
KRETKSKGQAQA | 0.602 ± 0.042
KRGIHKLVNEVG | 0.683 ± 0.011
KRGRRKLQRGRQ | 0.679 ± 0.028
KRGVVGFGKGGG | 0.6654 ± 0.0027
KRIDLDCSVAAD | 0.643 ± 0.022
KRKAQEVNSKKK | 0.703 ± 0.011
KRKENKKNKEKK | 0.669 ± 0.042
KRKREKKLKKYK | 0.634 ± 0.037
KRLKKKRNRAKA | 0.683 ± 0.031
KRLTSKVKTITG | 0.694 ± 0.031
KRNKDYGSFEVT | 0.629 ± 0.029
KRRKKKKQSGGK | 0.645 ± 0.023
KRSIEIRTKIKL | 0.7 ± 0.022

Sequence | protein stability index
KRTRRADVGKED | 0.65 ± 0.064
KRVGLRLCGRLT | 0.704 ± 0.04
KRVSGSEQDIAT | 0.6561 ± 0.0026
KRYKSYEDKNVM | 0.696 ± 0.033
KSEIRDGRFPSC | 0.589 ± 0.011
KSEMAIIEKKEN | 0.667 ± 0.055
KSGVWLWVGGGG | 0.714 ± 0.033
KSKDKGEGKELK | 0.694 ± 0.088
KSKTRTKLYSRN | 0.6421 ± 0.0017
KSLSEKSKEKGS | 0.668 ± 0.034
KSLYLVDDRVGR | 0.764 ± 0.078
KSNTGGGERNKA | 0.668 ± 0.018
KSPYNTPLSLVL | 0.672 ± 0.024
KSRVCSPSNEPS | 0.7443 ± 0.0074
KSYTGSRGQRVL | 0.701 ± 0.053
KTFRTYRTYFRK | 0.682 ± 0.023
KTKEKTKKEIQM | 0.629 ± 0.0042
KTKKKKKKKINK | 0.711 ± 0.11
KTKNTQRKTEEN | 0.653 ± 0.047
KTKTKKKERNRK | 0.622 ± 0.088
KTLYIAKTKSRA | 0.644 ± 0.038
KTNLGNTKVKKK | 0.613 ± 0.025
KTPAAVPWTRER | 0.693 ± 0.013
KTPHSTARNFNR | 0.736 ± 0.092
KTRNDQPQKFHN | 0.688 ± 0.034
KVCIRFSCKIHM | 0.6396 ± 0.0021

Sequence | protein stability index
KVIRVEALEILV | 0.544 ± 0.023
KVKIKREKKKRK | 0.672 ± 0.017
KVQGGGKYPTYS | 0.699 ± 0.058
KVSATIISFENI | 0.709 ± 0.1
KVVGRLGVERVR | 0.753 ± 0.0052
KWREQPRNDIVL | 0.604 ± 0.047
KYDSPFFNWCSQ | 0.579 ± 0.031
KYKEEINEKIFN | 0.646 ± 0.022
KYKELEAAALQK | 0.732 ± 0.11
KYRHDFNEVSKT | 0.665 ± 0.036
LAEGFSLIRSHR | 0.685 ± 0.019
LAFFEFVVDSLG | 0.677 ± 0.018
LAGGMTSRTVSI | 0.716 ± 0.0073
LAGVTLPRPSSA | 0.6633 ± 0.0046
LAIIKLRGDLSY | 0.6646 ± 0.0019
LAKRSKCCNRSR | 0.686 ± 0.018
LALGICRLSSAG | 0.7599 ± 0.005
LALSRVALFSHS | 0.679 ± 0.042
LAPPPARLPLSP | 0.687 ± 0.009
LARFRAEWGGVV | 0.691 ± 0.019
LARWFILRDLIY | 0.56 ± 0.0089
LASARPLILSWP | 0.628 ± 0.019
LASEPLPPYPPS | 0.704 ± 0.052
LASPPFPRPPPP | 0.57 ± 0.12
LASSLTALRYPP | 0.742 ± 0.064
LASYSSCYIRDF | 0.751 ± 0.017

Sequence | protein stability index
LATPPPPPLSPP | 0.789 ± 0.19
LAVKGIVNDSTI | 0.683 ± 0.0084
LCGVRGESGLEG | 0.685 ± 0.031
LCLFRSCVHSSA | 0.616 ± 0.049
LCLRRLSCVGFG | 0.568 ± 0.022
LCLWVWGSVVGG | 0.6123 ± 0.0015
LCPNFFFFSSSP | 0.75 ± 0.017
LCPRIAIVHPPS | 0.606 ± 0.027
LCQCAFLSFSCF | 0.61642 ± 1.1e-05
LCRPNELPDGLP | 0.664 ± 0.039
LCSLWWGLVSGW | 0.652 ± 0.029
LCSPCSSLFHSQ | 0.656 ± 0.032
LCVGAGCAFEEG | 0.675 ± 0.025
LCVWFGGLGLVG | 0.69 ± 0.019
LDAVRCRDKAVV | 0.6537 ± 0.0036
LDGAHLLLNTIP | 0.687 ± 0.039
LDRTIPGPWPLR | 0.731 ± 0.042
LDVASTPPLSTL | 0.704 ± 0.023
LDVCDGVSGVRS | 0.647 ± 0.035
LDYDTTNSMWLS | 0.586 ± 0.09
LECLSRGWSIYC | 0.541 ± 0.05
LEDGDRVYQVTI | 0.655 ± 0.012
LEEGLYQQEDIR | 0.722 ± 0.076
LEFEIYHSECTV | 0.685 ± 0.088
LEFMTENSCACV | 0.652 ± 0.033
LEGGVREMRGDG | 0.641 ± 0.053

Sequence | protein stability index
LEPHEIKERRPL | 0.721 ± 0.066
LEQNCYYGEFSS | 0.665 ± 0.035
LETEVDIYWLYR | 0.605 ± 0.048
LEVHQGYLSSCH | 0.676 ± 0.12
LFALSVHTHPYP | 0.73 ± 0.024
LFDRRDTSTLLL | 0.707 ± 0.032
LFENNGIKCHKR | 0.683 ± 0.013
LFFGVEWWRFEG | 0.5604 ± 0.0023
LFFLFSPFSRLP | 0.786 ± 0.089
LFGAGGGGVEVG | 0.672 ± 0.14
LFGPRCTSSSAV | 0.689 ± 0.015
LFGSMGVLGIGR | 0.672 ± 0.061
LFIGKEGWVACL | 0.562 ± 0.019
LFIYSMKRFILE | 0.631 ± 0.052
LFKKVGGRSLVW | 0.6813 ± 0.0036
LFLAPFRLVLGV | 0.518 ± 0.01
LFLLSLLDWGFR | 0.661 ± 0.072
LFLPPLFRRSPF | 0.684 ± 0.018
LFLWRFPSPFRA | 0.661 ± 0.036
LFPCPLRPGCLP | 0.699 ± 0.099
